We go through seven molecules from paper PMC5027287, “Real-time observation of DNA recognition and rejection by the RNA-guided endonuclease Cas9”.

The target of data set [1] is T1, Cas9 (SpCas9) (Streptococcus pyogenes, UniProt Q99ZW2 1-1368). Description: smFRET; 20 nM Cas9-RNA; koff <0.006 s-1, lifetime >3 min (photobleaching limit); Immobilized biotin/Cy3 DNA, 20 nM Cas9-RNA (Cy5 crRNA), 0.1 s frames; imaging buffer, pH and temperature not in the material; kon ~6e6 M-1 s-1. Conditions: protein: recombinant, tags: His10-MBP removed by TEV, label: Cy3 (DNA), biotin (DNA), DNA duplex 1:2, 5' overhang 2 nt on strand 1, crRNA 3 : tracrRNA 4, guide pairs strand 2.
T1 sequence (Q99ZW2 whole entry): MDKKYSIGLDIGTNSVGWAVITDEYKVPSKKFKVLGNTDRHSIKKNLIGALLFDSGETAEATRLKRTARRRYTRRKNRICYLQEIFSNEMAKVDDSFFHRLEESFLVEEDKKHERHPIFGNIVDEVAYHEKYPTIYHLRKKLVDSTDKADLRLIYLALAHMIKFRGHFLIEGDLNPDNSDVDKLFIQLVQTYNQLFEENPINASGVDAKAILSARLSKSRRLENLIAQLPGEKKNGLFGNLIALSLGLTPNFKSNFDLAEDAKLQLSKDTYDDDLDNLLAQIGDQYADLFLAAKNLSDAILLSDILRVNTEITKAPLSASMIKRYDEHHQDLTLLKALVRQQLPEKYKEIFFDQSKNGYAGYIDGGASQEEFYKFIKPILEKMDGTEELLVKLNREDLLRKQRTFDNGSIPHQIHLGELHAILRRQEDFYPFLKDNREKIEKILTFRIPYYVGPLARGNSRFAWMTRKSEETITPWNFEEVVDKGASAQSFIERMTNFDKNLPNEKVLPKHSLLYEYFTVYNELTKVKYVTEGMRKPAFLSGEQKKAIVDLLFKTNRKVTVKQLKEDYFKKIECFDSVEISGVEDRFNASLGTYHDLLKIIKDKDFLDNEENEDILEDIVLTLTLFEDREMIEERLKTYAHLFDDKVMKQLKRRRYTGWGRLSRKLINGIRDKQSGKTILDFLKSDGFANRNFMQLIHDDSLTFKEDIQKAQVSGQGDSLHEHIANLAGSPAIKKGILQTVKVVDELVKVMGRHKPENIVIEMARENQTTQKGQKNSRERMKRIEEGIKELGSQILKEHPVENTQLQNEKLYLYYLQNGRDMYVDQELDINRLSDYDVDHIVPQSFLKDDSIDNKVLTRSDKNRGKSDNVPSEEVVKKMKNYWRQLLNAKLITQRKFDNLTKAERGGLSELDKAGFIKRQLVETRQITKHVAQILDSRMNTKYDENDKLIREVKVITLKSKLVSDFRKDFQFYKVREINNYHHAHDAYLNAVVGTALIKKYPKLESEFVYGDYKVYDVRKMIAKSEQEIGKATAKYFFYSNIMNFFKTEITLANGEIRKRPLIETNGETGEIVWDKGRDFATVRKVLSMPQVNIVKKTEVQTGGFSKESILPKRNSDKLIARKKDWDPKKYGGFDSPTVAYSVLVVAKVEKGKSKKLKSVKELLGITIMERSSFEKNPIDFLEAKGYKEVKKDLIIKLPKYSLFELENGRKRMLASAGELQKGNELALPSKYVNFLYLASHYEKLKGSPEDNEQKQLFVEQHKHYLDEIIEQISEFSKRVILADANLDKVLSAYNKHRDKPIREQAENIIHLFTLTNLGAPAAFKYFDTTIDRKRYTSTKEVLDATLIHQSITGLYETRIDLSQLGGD

Data set [2] has as its target T1, Cas9 (SpCas9). Description: smFRET; 20 nM; bound fraction as cognate; bound lifetime ~16 s; Immobilized biotin/Cy3 DNA, 20 nM Cas9-RNA (Cy5 crRNA), 0.1 s frames; imaging buffer, pH and temperature not in the material; kon ~6e6 M-1 s-1. Conditions: protein: recombinant, tags: His10-MBP removed by TEV, label: Cy3, biotin, as N1.
In data set [3] the target is T1, Cas9 (SpCas9). Description: smFRET; 20 nM; bound fraction as cognate; Immobilized biotin/Cy3 DNA, 20 nM Cas9-RNA (Cy5 crRNA), 0.1 s frames; imaging buffer, pH and temperature not in the material; kon ~6e6 M-1 s-1. Conditions: protein: recombinant, tags: His10-MBP removed by TEV, label: Cy3, biotin, as N1.

B1: Cognate DNA + guide RNA (mixed)
DNA 1: AACGCAACGTCGTCAGCTGTCTGCACAGCAGAAATCTCTGCTGACGCATAAAGATGAGACGCTGGAGTACAAACGTCAGCTTGCT
DNA 2: AGCAAGCTGACGTTTGTACTCCAGCGTCTCATCTTTATGCGTCAGCAGAGATTTCTGCTGTGCAGACAGCTGACGACGTTGCG
RNA 1: GACGCAUAAAGAUGAGACGCGUUUUAGAGCUAUGCUGUUUUG
RNA 2: GGACAGCAUAGCAAGUUAAAAUAAGGCUAGUCCGUUAUCAACUUGAAAAAGUGGCACCGAGUCGGUGCUUUUU
Turning to B1, the binding result in the data set with Cas9 (SpCas9) [1] is on record as “binds”.

B2: 9-20mm (mixed)
DNA 1: AACGCAACGTCGTCAGCTGTCTGCACAGCAGAAATCTCTGCTCTGCGTATTTCTTGAGACGCTGGAGTACAAACGTCAGCTTGCT
DNA 2: AGCAAGCTGACGTTTGTACTCCAGCGTCTCAAGAAATACGCAGAGCAGAGATTTCTGCTGTGCAGACAGCTGACGACGTTGCG
RNA 1: GACGCAUAAAGAUGAGACGCGUUUUAGAGCUAUGCUGUUUUG
RNA 2: GGACAGCAUAGCAAGUUAAAAUAAGGCUAGUCCGUUAUCAACUUGAAAAAGUGGCACCGAGUCGGUGCUUUUU
Take B2: the binding result with Cas9 (SpCas9) [2] is on record as “binds”.

B3: 11-20mm (mixed)
DNA 1: AACGCAACGTCGTCAGCTGTCTGCACAGCAGAAATCTCTGCTCTGCGTATTTGATGAGACGCTGGAGTACAAACGTCAGCTTGCT
DNA 2: AGCAAGCTGACGTTTGTACTCCAGCGTCTCATCAAATACGCAGAGCAGAGATTTCTGCTGTGCAGACAGCTGACGACGTTGCG
RNA 1: GACGCAUAAAGAUGAGACGCGUUUUAGAGCUAUGCUGUUUUG
RNA 2: GGACAGCAUAGCAAGUUAAAAUAAGGCUAGUCCGUUAUCAACUUGAAAAAGUGGCACCGAGUCGGUGCUUUUU
As to B3, in the data set with Cas9 (SpCas9) [3], the binding result is on record as “binds”.

B4: 13-20mm (mixed)
DNA 1: AACGCAACGTCGTCAGCTGTCTGCACAGCAGAAATCTCTGCTCTGCGTATAAGATGAGACGCTGGAGTACAAACGTCAGCTTGCT
DNA 2: AGCAAGCTGACGTTTGTACTCCAGCGTCTCATCTTATACGCAGAGCAGAGATTTCTGCTGTGCAGACAGCTGACGACGTTGCG
RNA 1: GACGCAUAAAGAUGAGACGCGUUUUAGAGCUAUGCUGUUUUG
RNA 2: GGACAGCAUAGCAAGUUAAAAUAAGGCUAGUCCGUUAUCAACUUGAAAAAGUGGCACCGAGUCGGUGCUUUUU
On to B4, for which, in the data set with Cas9 (SpCas9) [3], the binding result is listed as “binds”.

B5: 17-20mm (mixed)
DNA 1: AACGCAACGTCGTCAGCTGTCTGCACAGCAGAAATCTCTGCTCTGCCATAAAGATGAGACGCTGGAGTACAAACGTCAGCTTGCT
DNA 2: AGCAAGCTGACGTTTGTACTCCAGCGTCTCATCTTTATGGCAGAGCAGAGATTTCTGCTGTGCAGACAGCTGACGACGTTGCG
RNA 1: GACGCAUAAAGAUGAGACGCGUUUUAGAGCUAUGCUGUUUUG
RNA 2: GGACAGCAUAGCAAGUUAAAAUAAGGCUAGUCCGUUAUCAACUUGAAAAAGUGGCACCGAGUCGGUGCUUUUU
Take B5: in the data set with Cas9 (SpCas9) [3], the binding result is on record as “binds”.

B6: 10-20mm (mixed)
DNA 1: AACGCAACGTCGTCAGCTGTCTGCACAGCAGAAATCTCTGCTCTGCGTATTTCATGAGACGCTGGAGTACAAACGTCAGCTTGCT
DNA 2: AGCAAGCTGACGTTTGTACTCCAGCGTCTCATGAAATACGCAGAGCAGAGATTTCTGCTGTGCAGACAGCTGACGACGTTGCG
RNA 1: GACGCAUAAAGAUGAGACGCGUUUUAGAGCUAUGCUGUUUUG
RNA 2: GGACAGCAUAGCAAGUUAAAAUAAGGCUAGUCCGUUAUCAACUUGAAAAAGUGGCACCGAGUCGGUGCUUUUU
Turning to B6, in the data set with Cas9 (SpCas9) [3], the binding result is “binds”.

B7: 12-20mm (mixed)
DNA 1: AACGCAACGTCGTCAGCTGTCTGCACAGCAGAAATCTCTGCTCTGCGTATTAGATGAGACGCTGGAGTACAAACGTCAGCTTGCT
DNA 2: AGCAAGCTGACGTTTGTACTCCAGCGTCTCATCTAATACGCAGAGCAGAGATTTCTGCTGTGCAGACAGCTGACGACGTTGCG
RNA 1: GACGCAUAAAGAUGAGACGCGUUUUAGAGCUAUGCUGUUUUG
RNA 2: GGACAGCAUAGCAAGUUAAAAUAAGGCUAGUCCGUUAUCAACUUGAAAAAGUGGCACCGAGUCGGUGCUUUUU
For the molecule B7, in the data set with Cas9 (SpCas9) [3], the binding result was “binds”.
